Where no end group is shown, it is not given here. The star is where a group is joined. FITC = O=C1OC2(c3ccc(O)cc3Oc3cc(O)ccc32)c2ccc(NC(=S)*)cc21

Assay [1] deals with T1, CNGB3-MYC/His fusion protein (human, UniProt Q9NQW8 1-809).
T1 construct: Full-length CNGB3 cDNA in pcDNA3.1/myc-His-B, expressed in HeLa and HEK293T cells; also called recombinant CNGB3; not shown: C-terminal myc-His tag from the pcDNA3.1/myc-His-B vector
T1 sequence: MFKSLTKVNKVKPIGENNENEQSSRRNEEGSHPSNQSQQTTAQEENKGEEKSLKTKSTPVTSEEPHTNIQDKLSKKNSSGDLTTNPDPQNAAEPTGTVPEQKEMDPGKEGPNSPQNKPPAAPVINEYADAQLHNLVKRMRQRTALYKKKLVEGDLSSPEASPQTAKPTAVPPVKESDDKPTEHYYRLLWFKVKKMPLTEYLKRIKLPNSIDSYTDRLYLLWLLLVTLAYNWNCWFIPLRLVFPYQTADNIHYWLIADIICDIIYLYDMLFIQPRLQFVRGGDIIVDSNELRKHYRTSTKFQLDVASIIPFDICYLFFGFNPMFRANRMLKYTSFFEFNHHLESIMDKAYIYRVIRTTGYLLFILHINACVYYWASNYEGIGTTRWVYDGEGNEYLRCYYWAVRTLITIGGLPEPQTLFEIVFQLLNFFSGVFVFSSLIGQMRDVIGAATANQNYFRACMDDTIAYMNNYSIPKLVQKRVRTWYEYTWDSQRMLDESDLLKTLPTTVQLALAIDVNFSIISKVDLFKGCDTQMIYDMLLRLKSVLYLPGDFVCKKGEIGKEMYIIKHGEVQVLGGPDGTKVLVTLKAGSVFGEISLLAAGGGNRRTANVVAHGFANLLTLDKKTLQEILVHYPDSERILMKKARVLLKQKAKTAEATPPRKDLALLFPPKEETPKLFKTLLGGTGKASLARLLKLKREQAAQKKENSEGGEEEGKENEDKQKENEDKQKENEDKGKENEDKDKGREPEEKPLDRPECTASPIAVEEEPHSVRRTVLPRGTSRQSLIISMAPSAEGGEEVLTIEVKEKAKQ
Kind of assay: fluorescence microscopy of CNGB3-MYC expressing HEK293T cells, 37° C. for 30 min, Alexa 488-conjugated avidin. The method, then:
When dKLAK-z13 was added to culture medium of HEK293T cells transfected by expression vector for CNGB3-MYC, apoptosis was not induced, however. It was realized that this lack of effect could be due to the fact that receptor-bound dKLAK-z13 localizes to the luminal side of endosomes, a prediction supported by the endosome-like pattern of fluorescent z13. To release dKLAK-z13 from the endosomes to the cytoplasm, an endosome-escaping 18-mer peptide […] (SEQ ID NO:38; here abbreviated as HLAH) was devised by replacing lysines in KLAKLAK (SEQ ID NO:39) with histidines, to provide histidine-rich sequences capable of destabilizing endosome membranes at acidic pH (Midoux et al., 2002; Pichon et al., 2001). […] For this experiment, biotin-z13 was bound to CNGB3-MYC expressing HEK293T cells at 37° C. for 30 min with or without HLAH-z13. Cells were stained by Alexa 488-conjugated avidin followed by DAPI nuclear staining.

In assay [2] the target is T1, CNGB3-MYC/His fusion protein. Kind of assay: fluorescence microscopy of HeLa cells transfected with CNGB3-MYC; FITC-z13 in the culture medium. How it is done:
When FITC-z13 was added to culture medium of CNGB3-MYC-expressing HeLa cells, FITC-z13 bound to sites marked by MYC-epitope expression. […] Antibody specificity was validated by immunostaining of CNGB3-Myc expressed in HeLa cells. This antibody strongly stained glandular epithelia of endometriosis in tissue sections.
CNGB3 cDNA was kindly provided by Dr. Hisao Ueyama, Department of Ophthalomology, Shiga University of Medical Science, Japan. cDNA encoding full-length CNGB3 was excised by HindIII and BsrGI and ligated into the HindIII and Asp718I sites of pcDNA3.1/myc-His-B vector (Invitrogen). HeLa cells were transfected with this vector, and expression of CNGB3-MYC/His fusion protein was determined by immunohistochemistry with an anti-MYC antibody and the anti-CNGB3 antibody (clone 3B2) described above. To test binding of z13 peptide to CNGB3, FITC-z13 was added (5 μg/ml) to the medium of HeLa cells transfected by the above-described vector and incubated at 37° C. for 15 min. Cells were washed with PBS, fixed with 4% PFA in PBS, and observed under a fluorescence microscope.

B1: biotinylated z13 (peptide)
peptide: VRRADNRPG
modifications: also: biotinylated (position not given here)
notes: also called biotin-z13
B1: in assay [1], the binding result was “binds”.

B2: FITC-z13 (peptide)
peptide: {FITC}-VRRADNRPG
notes: Synthetic fluorescence-tagged z13 peptide; also called fluorescent FITC-z13; z13 peptide with an N-terminal FITC-tag
With B2, in assay [2], the binding result is reported as “binds”.

(Values after patent US20160145308A1 (SANFORD BURNHAM MEDICAL RESEARCH INSTITUTE, published 2016).)
